Test results published in paper PMC5477644.

Experiments:
6His-Ska1/Ska2/Ska3 (WT) = 6His-Ska1/Ska2/Ska3 (WT) (UniProt Q96BD8); test: SEC + other: velocity sedimentation on a sucrose gradient
tubulin (microtubules) = test: TIRF, tracking of depolymerizing microtubule ends; details: reference: SKA wild type complex; sites S34

Sequence of Ska3 (C13orf3, RAMA1) (Q8IX90 whole entry, looked up, stated change not applied): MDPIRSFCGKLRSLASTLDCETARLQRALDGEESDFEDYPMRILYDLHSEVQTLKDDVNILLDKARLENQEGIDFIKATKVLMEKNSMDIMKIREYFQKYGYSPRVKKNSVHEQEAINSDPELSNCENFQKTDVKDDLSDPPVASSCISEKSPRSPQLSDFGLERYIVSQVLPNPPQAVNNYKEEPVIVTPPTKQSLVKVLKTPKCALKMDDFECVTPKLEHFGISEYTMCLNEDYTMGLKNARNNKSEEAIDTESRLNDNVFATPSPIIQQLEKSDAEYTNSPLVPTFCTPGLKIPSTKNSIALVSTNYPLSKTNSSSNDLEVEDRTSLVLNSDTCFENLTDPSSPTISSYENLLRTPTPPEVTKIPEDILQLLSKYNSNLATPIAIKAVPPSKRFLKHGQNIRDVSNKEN
Sequence of 6His-Ska1/Ska2/Ska3 (WT) (from UniProt Q96BD8 1-255; Q8WVK7 1-121; Q8IX90 1-412) (complex) (Q96BD8 whole entry): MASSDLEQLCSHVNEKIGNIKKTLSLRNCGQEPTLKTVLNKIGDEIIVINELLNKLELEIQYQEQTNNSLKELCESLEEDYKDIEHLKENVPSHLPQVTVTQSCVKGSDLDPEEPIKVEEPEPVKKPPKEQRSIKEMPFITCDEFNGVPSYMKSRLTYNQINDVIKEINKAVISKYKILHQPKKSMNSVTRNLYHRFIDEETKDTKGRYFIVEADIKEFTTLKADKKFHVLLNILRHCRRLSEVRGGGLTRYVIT
Sequence of 6His-Ska1/Ska2/Ska3 (WT) (from UniProt Q96BD8 1-255; Q8WVK7 1-121; Q8IX90 1-412) (complex) (Q8WVK7 whole entry): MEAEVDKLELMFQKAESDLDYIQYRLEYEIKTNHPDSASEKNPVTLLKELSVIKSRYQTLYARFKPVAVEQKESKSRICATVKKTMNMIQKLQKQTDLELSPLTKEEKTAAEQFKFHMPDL
Sequence of 6His-Ska1/Ska2/Ska3 (WT) (from UniProt Q96BD8 1-255; Q8WVK7 1-121; Q8IX90 1-412) (complex) (Q8IX90 whole entry): as the sequence (Q8IX90 whole entry, looked up, stated change not applied) above

Substance | stoichiometry N (6His-Ska1/Ska2/Ska3 (WT)) | other: median post/pre-conversion intensity ratio (tubulin (microtubules))
6His-Ska1/Ska2/Ska3 (WT) (from UniProt Q96BD8 1-255; Q8WVK7 1-121; Q8IX90 1-412) (complex) | 2 | –
Ska3 (C13orf3, RAMA1) (from UniProt Q8IX90) SKA S34A complex | – | same; reference 1.01
